Source: US20250092148A1 (Kyowa Kirin, published 2025)
Positions count from the first letter of the chain named.

Assays:
Test in all cases: flow cytometry, Fab on HEK-293T cells expressing the mutant; labels of this column stand one row too low, mutant assigned after shifting them up
human CD131 P199A = target: T1, human CD131 P199A (human, UniProt P32927 17-897)
T1 construct: whole, on cells
T1 sequence (looked up): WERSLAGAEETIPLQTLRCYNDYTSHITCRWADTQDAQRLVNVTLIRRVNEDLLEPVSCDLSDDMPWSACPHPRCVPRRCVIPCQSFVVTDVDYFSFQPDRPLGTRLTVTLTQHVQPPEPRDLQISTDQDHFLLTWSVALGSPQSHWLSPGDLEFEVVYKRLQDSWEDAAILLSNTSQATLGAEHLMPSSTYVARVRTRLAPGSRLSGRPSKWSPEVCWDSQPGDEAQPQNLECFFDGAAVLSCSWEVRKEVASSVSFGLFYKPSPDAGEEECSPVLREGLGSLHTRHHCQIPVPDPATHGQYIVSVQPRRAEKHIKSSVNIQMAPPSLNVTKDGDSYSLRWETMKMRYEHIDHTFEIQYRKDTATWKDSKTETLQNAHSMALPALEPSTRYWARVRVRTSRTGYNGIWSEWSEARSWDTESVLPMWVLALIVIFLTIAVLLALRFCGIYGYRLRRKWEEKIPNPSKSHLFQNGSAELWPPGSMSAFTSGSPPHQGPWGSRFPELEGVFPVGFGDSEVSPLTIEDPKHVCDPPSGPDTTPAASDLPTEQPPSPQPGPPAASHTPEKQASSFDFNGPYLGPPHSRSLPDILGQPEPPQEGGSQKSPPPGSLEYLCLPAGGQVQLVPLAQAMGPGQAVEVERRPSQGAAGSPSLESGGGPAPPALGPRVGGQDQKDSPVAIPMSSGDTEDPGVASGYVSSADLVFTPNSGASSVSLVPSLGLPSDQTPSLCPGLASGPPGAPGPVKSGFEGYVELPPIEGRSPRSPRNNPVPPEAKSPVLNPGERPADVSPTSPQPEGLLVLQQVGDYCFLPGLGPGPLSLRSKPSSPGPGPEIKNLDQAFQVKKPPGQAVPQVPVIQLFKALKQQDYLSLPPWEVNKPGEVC

human CD131 D144A = target: T2, human CD131 D144A (human, UniProt P32927 17-897)
T2 construct: whole, on cells
T2 sequence (looked up): T1 sequence (looked up) with D128A, A183P

human CD131 D146A = target: T3, human CD131 D146A (human, UniProt P32927 17-897)
T3 construct: whole, on cells
T3 sequence (looked up): T1 sequence (looked up) with D130A, A183P

B1: anti-CD131 antibody 131-B2, Fab (Fab, V domains shown)
VH: QVQLVQSGAEVKEPGASVKISCKASGYTFTNDYMHWVRQAPGQGLEWMGIINPTGGGTSYAQKFRGRVTMTRDTSTSTVYMELSSLRSEDTAVFYCARERYYGSGTYFNIGLWYFDLWGRGTLVTVSS
VL: not shown
notes: Fab made from the antibody by an enzyme treatment
With B1 the “Binding Reactivity (% WT)” value (human CD131 P199A) was 96.8 % WT, the “Binding Reactivity (% WT)” value (human CD131 D144A) was 129 % WT and the “Binding Reactivity (% WT)” value (human CD131 D146A) was 88.4 % WT.
